Experimental data reported in paper PMC9768791 (2022).
One block for each binder: values may come before it.

Assays:
Test in all cases: activation reporter or marker
[1] = target: T1, UAP1p.H469Y peptide on HLA-A*02:01 (human)
T1 peptide: ITADVNYNL

[2] = target: T2, SVILp.E1748D peptide on HLA-A*02:01 (human)
T2 peptide: RQFDITSVSV

[3] = target: T3, PPP5Cp.E428K peptide on HLA-A*24:02 (human)
T3 peptide: DYIIRSHKV

[4] = target: T4, STRADAp.M189V peptide on HLA-A*01:01 (human)
T4 peptide: ALDYIHHVGYV

[5] = target: T5, VPS13Bp.G2602E peptide on HLA-A*02:01 (human)
T5 peptide: FVNLEQHVV

[6] = target: T6, ICKp.P591T peptide on HLA-B*39:01 (human)
T6 peptide: MRTHPGRPFF

[7] = target: T7, TENM4p.E1133D peptide on HLA-C*05:01 (human)
T7 peptide: LSDAFVSV

[8] = target: T8, STRADAp.M189V peptide on HLA-C*07:01 (human)
T8 peptide: KALDYIHHV

[9] = target: T9, UGGT2p.L880V peptide on HLA-C*12:02 (human)
T9 peptide: FVGPLDEDF

[10] = target: T10, MTHFRp.R238H peptide on HLA-B*40:01 (human)
T10 peptide: FEADTFFHFV

[11] = target: T11, CLSTN1p.L289M peptide on HLA-C*03:03 (human)
T11 peptide: LAVFPNIHM

[12] = target: T12, CLSTN1p.L289M peptide on HLA-B*35:01 (human)
T12 peptide: FPNIHMETC

[13] = target: T13, GPSM2p.D77A peptide on HLA-C*03:03 (human)
T13 peptide: YLHAYAKAL

[14] = target: T14, PREPp.G384A peptide on HLA-B*35:01 (human)
T14 peptide: FPLDVGSIVAY

[15] = target: T15, GALNT2p.L14R peptide on HLA-B*35:01 (human)
T15 peptide: FAFRWVLGIAY

[16] = target: T16, CEBPZp.S100F peptide on HLA-A*24:02 (human)
T16 peptide: KYTKAFLV

[17] = target: T17, ICKp.P591T peptide on HLA-C*12:02 (human)
T17 peptide: RTHPGRPFF

[18] = target: T18, PDS5Bp.L203V peptide on HLA-A*02:01 (human)
T18 peptide: LLDTVLVNV

B1: TCR798 (TCR, V domains shown)
Valpha: AQSVTQLDSQVPVFEEAPVELRCNYSSSVSVYLFWYVQYPNQGLQLLLKYLSGSTLVKGINGFEAEFNKSQTSFHLRKPSVHISDTAEYFCAVSYSGSARQLTFGSGTQLTVLP
Vbeta: DAGVIQSPRHEVTEMGQEVTLRCKPISGHNSLFWYRQTMMRGLELLIYFNNNVPIDDSGMPEDRFSAKMPNASFSTLKIQPSEPRDSAVYFCASNPGGRGEKLFFGSGTQLSVL
binding result [1]: recognises

B2: TCR441 (TCR, V domains shown)
Valpha: ILNVEQSPQSLHVQEGDSTNFTCSFPSSNFYALHWYRWETAKSPEALFVMTLNGDEKKKGRISATLNTKEGYSYLYIKGSQPEDSATYLCAPSKYNNNDMRFGAGTRLTVKP
Vbeta: DAGITQSPRHKVTETGTPVTLRCHQTENHRYMYWYRQDPGHGLRLIHYSYGVKDTDKGEVSDGYSVSRSKTEDFLLTLESATSSQTSVYFCAISGTEDGELFFGEGSRLTVL
binding result [2]: recognises

B3: TCR536 (TCR, V domains shown)
Valpha: AQSVAQPEDQVNVAEGNPLTVKCTYSVSGNPYLFWYVQYPNRGLQFLLKYITGDNLVKGSYGFEAEFNKSQTSFHLKKPSALVSDSALYFCAVSPLTSGTYKYIFGTGTRLKVLA
Vbeta: SQTIHQWPATLVQPVGSPLSLECTVEGTSNPNLYWYRQAAGRGLQLLFYSVGIGQISSEVPQNLSASRPQDRQFILSSKKLLLSDSGFYLCAWSEGDETQYFGPGTRLLVL
binding result [3]: recognises

B4: TCR829 (TCR, V domains shown)
Valpha: QKEVEQDPGPLSVPEGAIVSLNCTYSNSAFQYFMWYRQYSRKGPELLMYTYSSGNKEDGRFTAQVDKSSKYISLFIRDSQPSDSATYLCAMSPTYSGAGSYQLTFGKGTKLSVIP
Vbeta: GAVVSQHPSWVICKSGTSVKIECRSLDFQATTMFWYRQFPKQSLMLMATSNEGSKATYEQGVEKDKFLINHASLTLSTLTVTSAHPEDSSFYICSASLLGEGYEQYFGPGTRLTVT
binding result [4]: recognises

B5: TCR535 (TCR, V domains shown)
Valpha: AQKVTQAQTEISVVEKEDVTLDCVYETRDTTYYLFWYKQPPSGELVFLIRRNSFDEQNEISGRYSWNFQKSTSSFNFTITASQVVDSAVYFCALSTSMDSNYQLIWGAGTKLIIKP
Vbeta: EPEVTQTPSHQVTQMGQEVILRCVPISNHLYFYWYRQILGQKVEFLVSFYNNEISEKSEIFDDQFSVERPDGSNFTLKIRSTKLEDSAMYFCASSCWDRSTDTQYFGPGTRLTVL
binding result [5]: recognises

B6: TCR687 (TCR, V domains shown)
Valpha: AQSVTQLGSHVSVSEGALVLLRCNYSSSVPPYLFWYVQYPNQGLQLLLKYTSAATLVKGINGFEAEFKKSETSFHLTKPSAHMSDAAEYFCAVTDSNYQLIWGAGTKLIIKP
Vbeta: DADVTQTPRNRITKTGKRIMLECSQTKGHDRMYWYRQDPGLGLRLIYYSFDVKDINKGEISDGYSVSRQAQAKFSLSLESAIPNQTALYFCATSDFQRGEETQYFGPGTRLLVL
binding result [6]: recognises

B7: TCR707 (TCR, V domains shown)
Valpha: QKEVEQNSGPLSVPEGAIASLNCTYSDRGSQSFFWYRQYSGKSPELIMSIYSNGDKEDGRFTAQLNKASQYVSLLIRDSQPSDSATYLCAVNVFNKFYFGSGTKLNVKP
Vbeta: DAGVIQSPRHEVTEMGQEVTLRCKPISGHDYLFWYRQTMMRGLELLIYFNNNVPIDDSGMPEDRFSAKMPNASFSTLKIQPSEPRDSAVYFCASSFLITDTQYFGPGTRLTVL
binding result [7]: recognises

B8: TCR827 (TCR, V domains shown)
Valpha: GQQVMQIPQYQHVQEGEDFTTYCNSSTTLSNIQWYKQRPGGHPVFLIQLVKSGEVKKQKRLTFQFGEAKKNSSLHITATQTTDVGTYFCAAPDAGGTSYGKLTFGQGTILTVHP
Vbeta: NAGVTQTPKFQVLKTGQSMTLQCAQDMNHEYMSWYRQDPGMGLRLIHYSVGAGITDQGEVPNGYNVSRSTTEDFPLRLLSAAPSQTSVYFCASSPLNPYNEQFFGPGTRLTVL
binding result [8]: recognises

B9: TCR682 (TCR, V domains shown)
Valpha: AQSVTQPDIHITVSEGASLELRCNYSYGATPYLFWYVQSPGQGLQLLLKYFSGDTLVQGIKGFEAEFKRSQSSFNLRKPSVHWSDAAEYFCAVAPDNYGQNFVFGPGTRLSVLP
Vbeta: DAMVIQNPRYQVTQFGKPVTLSCSQTLNHNVMYWYQQKSSQAPKLLFHYYDKDFNNEADTPDNFQSRRPNTSFCFLDIRSPGLGDAAMYLCATYSSGANVLTFGAGSRLTVL
binding result [9]: recognises

B10: TCR814 (TCR, V domains shown)
Valpha: TQLLEQSPQFLSIQEGENLTVYCNSSSVFSSLQWYRQEPGEGPVLLVTVVTGGEVKKLKRLTFQFGDARKDSSLHITAAQPGDTGLYLCAGLLGDSGAGSYQLTFGKGTKLSVIP
Vbeta: DAGITQSPRHKVTETGTPVTLRCHQTENHRYMYWYRQDPGHGLRLIHYSYGVKDTDKGEVSDGYSVSRSKTEDFLLTLESATSSQTSVYFCAISESWMSSYNEQFFGPGTRLTVL
binding result [10]: recognises

Now from value to binder:

binding result [11]: recognises
B11: TCR696 (TCR, V domains shown)
Valpha: AQSVTQLDSHVSVSEGTPVLLRCNYSSSYSPSLFWYVQHPNKGLQLLLKYTSAATLVKGINGFEAEFKKSETSFHLTKPSAHMSDAAEYFCVVSAPDTGRRALTFGSGTRLQVQP
Vbeta: GAGVSQSPSNKVTEKGKDVELRCDPISGHTALYWYRQSLGQGLEFLIYFQGNSAPDKSGLPSDRFSAERTGGSVSTLTIQRTQQEDSAVYLCASSSGQGFTDTQYFGPGTRLTVL

binding result [12]: recognises
B12: TCR691 (TCR, V domains shown)
Valpha: GQSLEQPSEVTAVEGAIVQINCTYQTSGFYGLSWYQQHDGGAPTFLSYNALDGLEETGRFSSFLSRSDSYGYLLLQELQMKDSASYFCAVQAGTALIFGKGTTLSVSS
Vbeta: DTEVTQTPKHLVMGMTNKKSLKCEQHMGHRAMYWYKQKAKKPPELMFVYSYEKLSINESVPSRFSPECPNSSLLNLHLHALQPEDSALYLCASSQPGGGNTEAFFGQGTRLTVV

binding result [13]: recognises
B13: TCR538 (TCR, V domains shown)
Valpha: ILNVEQSPQSLHVQEGDSTNFTCSFPSSNFYALHWYRWETAKSPEALFVMTLNGDEKKKGRISATLNTKEGYSYLYIKGSQPEDSATYLCAFDNYGQNFVFGPGTRLSVLP
Vbeta: DVKVTQSSRYLVKRTGEKVFLECVQDMDHENMFWYRQDPGLGLRLIYFSYDVKMKEKGDIPEGYSVSREKKERFSLILESASTNQTSMYLCASSLTGSFNEQFFGPGTRLTVL

binding result [14]: recognises
B14: TCR692 (TCR, V domains shown)
Valpha: GEDVEQSLFLSVREGDSSVINCTYTDSSSTYLYWYKQEPGAGLQLLTYIFSNMDMKQDQRLTVLLNKKDKHLSLRIADTQTGDSAIYFCAERNGGATNKLIFGTGTLLAVQP
Vbeta: DTEVTQTPKHLVMGMTNKKSLKCEQHMGHRAMYWYKQKAKKPPELMFVYSYEKLSINESVPSRFSPECPNSSLLNLHLHALQPEDSALYLCASSQDRTGAYSPLHFGNGTRLTVT

binding result [15]: recognises
B15: TCR802 (TCR, V domains shown)
Valpha: AQSVSQHNHHVILSEAASLELGCNYSYGGTVNLFWYVQYPGQHLQLLLKYFSGDPLVKGIKGFEAEFIKSKFSFNLRKPSVQWSDTAEYFCAVNLLTDSWGKFQFGAGTQVVVTP
Vbeta: EPEVTQTPSHQVTQMGQEVILRCVPISNHLYFYWYRQILGQKVEFLVSFYNNEISEKSEIFDDQFSVERPDGSNFTLKIRSTKLEDSAMYFCATMGSGGNEQFFGPGTRLTVL

binding result [16]: recognises
B16: TCR445 (TCR, V domains shown)
Valpha: AQTVTQSQPEMSVQEAETVTLSCTYDTSESDYYLFWYKQPPSRQMILVIRQEAYKQQNATENRFSVNFQKAAKSFSLKISDSQLGDAAMYFCASSRWGGSEKLVFGKGTKLTVNP
Vbeta: DSGVTQTPKHLITATGQRVTLRCSPRSGDLSVYWYQQSLDQGLQFLIQYYNGEERAKGNILERFSAQQFPDLHSELNLSSLELGDSALYFCASSDSRTGGTDTQYFGPGTRLTVL

binding result [17]: recognises
B17: TCR689 (TCR, V domains shown)
Valpha: GIQVEQSPPDLILQEGANSTLRCNFSDSVNNLQWFHQNPWGQLINLFYIPSGTKQNGRLSATTVATERYSLLYISSSQTTDSGVYFCAVVLSYNTDKLIFGTGTRLQVFP
Vbeta: DVKVTQSSRYLVKRTGEKVFLECVQDMDHENMFWYRQDPGLGLRLIYFSYDVKMKEKGDIPEGYSVSREKKERFSLILESASTNQTSMYLCASSLSPPGYLETQYFGPGTRLLVL

binding result [18]: recognises
B18: TCR447 (TCR, V domains shown)
Valpha: EDQVTQSPEALRLQEGESSSLNCSYTVSGLRGLFWYRQDPGKGPEFLFTLYSAGEEKEKERLKATLTKKESFLHITAPKPEDSATYLCAVHHLNRDDKIIFGKGTRLHILP
Vbeta: DSGVTQTPKHLITATGQRVTLRCSPRSGDLSVYWYQQSLDQGLQFLIQYYNGEERAKGNILERFSAQQFPDLHSELNLSSLELGDSALYFCASSADLGTREQYFGPGTRLTVT
